The supplement of paper PMC10567573

B1: COX4I1 (parent)
chain: FDKEWVAKQTKRMLDMKVNPIQGL

Variants of: B1
Experiment: protein stability index of a GFP-peptide fusion (GPS, HEK-293T) (PSI 1-6); higher = more stable
Details: c terminus: a fixed tail appended
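Also: lentivirally expressed fusions sorted by FACS into six bins by GFP to DsRed ratio, PSI derived from sequencing read proportions per bin multiplied by bin number.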

Row | Variant | protein stability index
1 | FDKEWVAKQTQRMLDMKVNPIQGL | 1.79
2 | FDKEWVAKQTTRMLDMKVNPIQGL | 1.92
3 | FDKEWVAKQTERMLDMKVNPIQGL | 1.86
4 | FDKEWVAKQTARMLDMKVNPIQGL | 1.84
5 | FDKEWVAKQTVRMLDMKVNPIQGL | 2.58
6 | FDKEWVAKQTFRMLDMKVNPIQGL | 1.97
7 | FDKEWVAKQTCRMLDMKVNPIQGL | 2.77
8 | FDKEWVAKQTRRMLDMKVNPIQGL | 1.92
9 | FDKEWVAKQTSRMLDMKVNPIQGL | 2.28
10 | FDKEWVAKQTKWMLDMKVNPIQGL | 1.65
11 | FDKEWVAKQTKDMLDMKVNPIQGL | 1.88
12 | FDKEWVAKQTKIMLDMKVNPIQGL | 1.96
13 | FDKEWVAKQTKFMLDMKVNPIQGL | 2.17
14 | FDKEWVAKQTKGMLDMKVNPIQGL | 1.35
15 | FDKEWVAKQTKKMLDMKVNPIQGL | 1.81
16 | FDKEWVAKQTKRMLDDKVNPIQGL | 1.97
17 | FDKEWVAKQTKRMLDKKVNPIQGL | 1.5
18 | FDKEWVAKQTKRMLDNKVNPIQGL | 1.67
19 | FDKEWVAKQTKRMLDEKVNPIQGL | 1.52
20 | FDKEWVAKQTKRMLDCKVNPIQGL | 1.65
21 | FDKEWVAKQTKRMLDGKVNPIQGL | 2.13
22 | FDKEWVAKQTKRMLDFKVNPIQGL | 1.62
23 | FDKEWVAKQTKRMLDRKVNPIQGL | 1.72
24 | FDKEWVAKQTKRMLDQKVNPIQGL | 2.4

Row | Variant | protein stability index
25 | FDKEWVAKQTKRMLDVKVNPIQGL | 1.71
26 | FDKEWVAKQTKRMLDLKVNPIQGL | 2
27 | FDKEWVAKQTKRMLYMKVNPIQGL | 2.36
28 | FDKEWVAKQTKRMLWMKVNPIQGL | 2.07
29 | FDKEWVAKQTKRMLKMKVNPIQGL | 1.89
30 | FDKEWVAKQTKRMLMMKVNPIQGL | 3.02
31 | FDKEWVAKQTKRMLSMKVNPIQGL | 1.58
32 | FDKEWVAKQTKRMLTMKVNPIQGL | 1.84
33 | FDKEWVAKQTKRMLVMKVNPIQGL | 1.33
34 | FDKEWVAKQTKRMLPMKVNPIQGL | 1.84
35 | VDKEWVAKQTKRMLDMKVNPIQGL | 2.77
36 | LDKEWVAKQTKRMLDMKVNPIQGL | 3.57
37 | KDKEWVAKQTKRMLDMKVNPIQGL | 3.57
38 | DDKEWVAKQTKRMLDMKVNPIQGL | 4.38
39 | IDKEWVAKQTKRMLDMKVNPIQGL | 3.11
40 | RDKEWVAKQTKRMLDMKVNPIQGL | 2.42
41 | GDKEWVAKQTKRMLDMKVNPIQGL | 2.92
42 | QDKEWVAKQTKRMLDMKVNPIQGL | 3.31
43 | TDKEWVAKQTKRMLDMKVNPIQGL | 3.71
44 | FDKVWVAKQTKRMLDMKVNPIQGL | 2.42
45 | FDKYWVAKQTKRMLDMKVNPIQGL | 1.89
46 | FDKPWVAKQTKRMLDMKVNPIQGL | 1.66
47 | FDKNWVAKQTKRMLDMKVNPIQGL | 1.69
48 | FDKLWVAKQTKRMLDMKVNPIQGL | 1.88

Row | Variant | protein stability index
49 | FDKIWVAKQTKRMLDMKVNPIQGL | 1.47
50 | FDKSWVAKQTKRMLDMKVNPIQGL | 1.43
51 | FDKCWVAKQTKRMLDMKVNPIQGL | 1.62
52 | FDKGWVAKQTKRMLDMKVNPIQGL | 1.43
53 | FDKKWVAKQTKRMLDMKVNPIQGL | 1.82
54 | FDKEWVAKQTKRMLDMKVNPHQGL | 2.19
55 | FDKEWVAKQTKRMLDMKVNPCQGL | 2.6
56 | FDKEWVAKQTKRMLDMKVNPAQGL | 1.54
57 | FDKEWVAKQTKRMLDMKVNPLQGL | 1.64
58 | FDKEWVAKQTKRMLDMKVNPFQGL | 1.46
59 | FDKEWVAKQTKRMLDMKVNPVQGL | 1.89
60 | FDKEWVAKQTKRMLDMKVNPNQGL | 2.21
61 | FDKEWVAKQTKRMLDMKVNPIQGD | 1.84
62 | FDKEWVAKQTKRMLDMKVNPIQGE | 3.09
63 | FDKEWVAKQTKRMLDMKVNPIQGI | 2.3
64 | FDKEWVAKQTKRMLDMKVNPIQGA | 1.83
65 | FDKEWVAKQTKRMLDMKVNPIQGF | 1.72
66 | FDKEWVAKQTKRMLDMKVNPIQGN | 2.28
67 | FDKEWVAKQTKRMLDMKVNPIQGM | 1.74
68 | FDKEWVAKQTKRMLDMKVNPIQGK | 1.03
69 | FDKEWVAKQTKRMLDMKVNPIQGQ | 2.45
70 | FDKEWVAKQTKRPLDMKVNPIQGL | 2.35
71 | FDKEWVAKQTKRLLDMKVNPIQGL | 2.36
72 | FDKEWVAKQTKRDLDMKVNPIQGL | 1.59

Row | Variant | protein stability index
73 | FDKEWVAKQTKRHLDMKVNPIQGL | 1.43
74 | FDKEWVAKQTKRSLDMKVNPIQGL | 2.4
75 | FDKEWVAKQTKRTLDMKVNPIQGL | 1.82
76 | FDKEWVAKQTKRQLDMKVNPIQGL | 2.99
77 | FDKEWVAKQTKRELDMKVNPIQGL | 2.06
78 | FDKEWVAKQTKRYLDMKVNPIQGL | 1.63
79 | FDKEWVAKQTKRWLDMKVNPIQGL | 1.56
80 | FDKEWVAKQTKRMLDMKVNPIQQL | 2.02
81 | FDKEWVAKQTKRMLDMKVNPIQEL | 1.72
82 | FDKEWVAKQTKRMLDMKVNPIQTL | 1.77
83 | FDKEWVAKQTKRMLDMKVNPIQML | 1.76
84 | FDKEWVAKQTKRMLDMKVNPIQVL | 1.59
85 | FDKEWVAKQTKRMLDMKVNPIQFL | 2.36
86 | FDKEWVAKQTKRMLDMKVNPIQIL | 1.81
87 | FDKEWVAKQTKRMLDMKVEPIQGL | 1.9
88 | FDKEWVAKQTKRMLDMKVYPIQGL | 2.55
89 | FDKEWVAKQTKRMLDMKVKPIQGL | 1.92
90 | FDKEWVAKQTKRMLDMKVIPIQGL | 1.76
91 | FDKEWVAKQTKRMLDMKVMPIQGL | 1.97
92 | FDKEWVAKQTKRMLDMKVWPIQGL | 1.38
93 | FDKEWVAKQWKRMLDMKVNPIQGL | 1.82
94 | FDKEWVAKQIKRMLDMKVNPIQGL | 2.82
95 | FDKEWVAKQFKRMLDMKVNPIQGL | 1.82
96 | FDKEWVAKQDKRMLDMKVNPIQGL | 1.82

Row | Variant | protein stability index
97 | FDKEWVAKQQKRMLDMKVNPIQGL | 1.84
98 | FDKEWVAKQLKRMLDMKVNPIQGL | 1.24
99 | FDKEGVAKQTKRMLDMKVNPIQGL | 3.92
100 | FDKEIVAKQTKRMLDMKVNPIQGL | 3.44
101 | FDKEEVAKQTKRMLDMKVNPIQGL | 3.6
102 | FDKEKVAKQTKRMLDMKVNPIQGL | 3.54
103 | FDKEVVAKQTKRMLDMKVNPIQGL | 4.17
104 | FDKEYVAKQTKRMLDMKVNPIQGL | 3.22
105 | FYKEWVAKQTKRMLDMKVNPIQGL | 1.76
106 | FIKEWVAKQTKRMLDMKVNPIQGL | 2.45
107 | FCKEWVAKQTKRMLDMKVNPIQGL | 4.02
108 | FPKEWVAKQTKRMLDMKVNPIQGL | 2.51
109 | FWKEWVAKQTKRMLDMKVNPIQGL | 1.52
110 | FEKEWVAKQTKRMLDMKVNPIQGL | 1.89
111 | FDKEWTAKQTKRMLDMKVNPIQGL | 1.93
112 | FDKEWQAKQTKRMLDMKVNPIQGL | 2.83
113 | FDKEWWAKQTKRMLDMKVNPIQGL | 2.67
114 | FDKEWEAKQTKRMLDMKVNPIQGL | 3.33
115 | FDKEWFAKQTKRMLDMKVNPIQGL | 1.55
116 | FDKEWLAKQTKRMLDMKVNPIQGL | 2.37
117 | FDKEWCAKQTKRMLDMKVNPIQGL | 1.53
118 | FDKEWPAKQTKRMLDMKVNPIQGL | 1.86
119 | FDKEWDAKQTKRMLDMKVNPIQGL | 2.78
120 | FDKEWIAKQTKRMLDMKVNPIQGL | 1.35

Row | Variant | protein stability index
121 | FDKEWRAKQTKRMLDMKVNPIQGL | 2.1
122 | FDKEWVAKQTKRMLDMKVNPIYGL | 2.13
123 | FDKEWVAKQTKRMLDMKVNPISGL | 2.23
124 | FDKEWVAKQTKRMLDMKVNPICGL | 1.29
125 | FDKEWVAKQTKRMLDMKVNPIRGL | 1.89
126 | FDKEWVAKQTKRMLDMKVNPIAGL | 1.93
127 | FDKEWVAKQTKRMLDMKVNPIFGL | 1.73
128 | FDKEWVAKQTKRMLDMKVNPIEGL | 1.71
129 | FDKEWVAKQTKRMLDMKVNPILGL | 2.08
130 | FDKEWVAKQTKRMLDMKVNPIKGL | 1.92
131 | FDKEWVALQTKRMLDMKVNPIQGL | 2.31
132 | FDKEWVADQTKRMLDMKVNPIQGL | 2.29
133 | FDKEWVATQTKRMLDMKVNPIQGL | 1.48
134 | FDKEWVAVQTKRMLDMKVNPIQGL | 1.84
135 | FDKEWVARQTKRMLDMKVNPIQGL | 2.42
136 | FDKEWVAEQTKRMLDMKVNPIQGL | 2.35
137 | FDKEWVANQTKRMLDMKVNPIQGL | 1.38
138 | FDKEWVAYQTKRMLDMKVNPIQGL | 2.59
139 | FDKEWVAAQTKRMLDMKVNPIQGL | 1.06
140 | FDKEWVAKQTKRMLDMKNNPIQGL | 1.86
141 | FDKEWVAKQTKRMLDMKSNPIQGL | 1.81
142 | FDKEWVAKQTKRMLDMKQNPIQGL | 2.22
143 | FDKEWVAKQTKRMLDMKANPIQGL | 1.79
144 | FDKEWVAKQTKRMLDMKKNPIQGL | 1.19

Row | Variant | protein stability index
145 | FDKEWVAKQTKRMLDMKLNPIQGL | 1.72
146 | FDKEWVAKQTKRMLDMKMNPIQGL | 1.86
147 | FDKEWVAKCTKRMLDMKVNPIQGL | 3.23
148 | FDKEWVAKATKRMLDMKVNPIQGL | 3.55
149 | FDKEWVAKNTKRMLDMKVNPIQGL | 1.42
150 | FDKEWVAKRTKRMLDMKVNPIQGL | 1.87
151 | FDKEWVAKKTKRMLDMKVNPIQGL | 2.62
152 | FDKEWVAKYTKRMLDMKVNPIQGL | 2.14
153 | FDKEWVAKDTKRMLDMKVNPIQGL | 2.2
154 | FDKEWVAKQTKRMKDMKVNPIQGL | 2.12
155 | FDKEWVAKQTKRMVDMKVNPIQGL | 1.41
156 | FDKEWVAKQTKRMGDMKVNPIQGL | 1.72
157 | FDKEWVAKQTKRMDDMKVNPIQGL | 2.06
158 | FDKEWVAKQTKRMFDMKVNPIQGL | 2.88
159 | FDKEWVAKQTKRMNDMKVNPIQGL | 1.56
160 | FDKEWVAKQTKRMTDMKVNPIQGL | 1.79
161 | FDKEWVAKQTKRMEDMKVNPIQGL | 1.43
162 | FDKEWVAKQTKRMLDMKVNGIQGL | 2.17
163 | FDKEWVAKQTKRMLDMKVNQIQGL | 1.54
164 | FDKEWVAKQTKRMLDMKVNNIQGL | 1.47
165 | FDKEWVAKQTKRMLDMKVNTIQGL | 2.38
166 | FDKEWVAKQTKRMLDMKVNLIQGL | 1.63
167 | FDKEWVAKQTKRMLDMKVNWIQGL | 2.4
168 | FDKEWVAKQTKRMLDMKVNDIQGL | 1.63

Row | Variant | protein stability index
169 | FDKEWVAKQTKRMLDMKVNMIQGL | 2.08
170 | FDKEWVAKQTKRMLDMEVNPIQGL | 1.71
171 | FDKEWVAKQTKRMLDMMVNPIQGL | 1.58
172 | FDKEWVAKQTKRMLDMCVNPIQGL | 2.08
173 | FDKEWVAKQTKRMLDMHVNPIQGL | 1.44
174 | FDKEWVAKQTKRMLDMTVNPIQGL | 1.83
175 | FDKEWVAKQTKRMLDMIVNPIQGL | 2.3
176 | FDKEWVAKQTKRMLDMSVNPIQGL | 1.55
177 | FDSEWVAKQTKRMLDMKVNPIQGL | 2.19
178 | FDYEWVAKQTKRMLDMKVNPIQGL | 2.13
179 | FDPEWVAKQTKRMLDMKVNPIQGL | 1.75
180 | FDEEWVAKQTKRMLDMKVNPIQGL | 2.83
181 | FDLEWVAKQTKRMLDMKVNPIQGL | 2.06
182 | FDNEWVAKQTKRMLDMKVNPIQGL | 2.06
183 | FDAEWVAKQTKRMLDMKVNPIQGL | 2.17
184 | FDKEWVPKQTKRMLDMKVNPIQGL | 2.05
185 | FDKEWVVKQTKRMLDMKVNPIQGL | 1.18
186 | FDKEWVLKQTKRMLDMKVNPIQGL | 1.56
187 | FDKEWVYKQTKRMLDMKVNPIQGL | 1.71
188 | FDKEWVKKQTKRMLDMKVNPIQGL | 2.29
